Results: patent publication EP4786492A1
“And” between values parts separate entries of the source, which are not always exact repeats. Equal entries are not always repeated.

Key:
[1] = target: human DLL3 endogenously expressed on SHP77 and NCI-H82 cells (human) (UniProt Q9NYJ7); experiment: FACS SHP77 cells, 20 nM
[2] = target: human DLL3 endogenously expressed on SHP77 and NCI-H82 cells (human) (UniProt Q9NYJ7); experiment: FACS SHP77 cells, 4 nM
[3] = target: human DLL3 endogenously expressed on SHP77 and NCI-H82 cells (human) (UniProt Q9NYJ7); experiment: FACS SHP77 cells, 0.0064 nM
[4] = target: human DLL3 endogenously expressed on SHP77 and NCI-H82 cells (human) (UniProt Q9NYJ7); experiment: FACS SHP77 cells, 0.032 nM
[5] = target: human DLL3 endogenously expressed on SHP77 and NCI-H82 cells (human) (UniProt Q9NYJ7); experiment: FACS SHP77 cells, 0.16 nM
[6] = target: human DLL3 endogenously expressed on SHP77 and NCI-H82 cells (human) (UniProt Q9NYJ7); experiment: FACS SHP77 cells, 0.8 nM
[7] = target: human DLL3 endogenously expressed on SHP77 and NCI-H82 cells (human) (UniProt Q9NYJ7); experiment: FACS SHP77 cells, 0.00128 nM
[8] = target: human DLL3 endogenously expressed on SHP77 and NCI-H82 cells (human) (UniProt Q9NYJ7); experiment: FACS SHP77 cells, 100 nM
[9] = target: monkey DLL3 on CHO K1-cyno DLL3 cells (cynomolgus monkey DLL3 extracellular segment joined to EpCAM transmembrane and intracellular regions) (cynomolgus monkey); experiment: FACS, CHO K1-cyno DLL3 cells, 0.032 nM antibody
[10] = target: monkey DLL3 on CHO K1-cyno DLL3 cells (cynomolgus monkey DLL3 extracellular segment joined to EpCAM transmembrane and intracellular regions) (cynomolgus monkey); experiment: FACS, CHO K1-cyno DLL3 cells, 0.0064 nM antibody
[11] = target: monkey DLL3 on CHO K1-cyno DLL3 cells (cynomolgus monkey DLL3 extracellular segment joined to EpCAM transmembrane and intracellular regions) (cynomolgus monkey); experiment: FACS, CHO K1-cyno DLL3 cells, 0.8 nM antibody
[12] = target: monkey DLL3 on CHO K1-cyno DLL3 cells (cynomolgus monkey DLL3 extracellular segment joined to EpCAM transmembrane and intracellular regions) (cynomolgus monkey); experiment: FACS, CHO K1-cyno DLL3 cells, 100 nM antibody
[13] = target: monkey DLL3 on CHO K1-cyno DLL3 cells (cynomolgus monkey DLL3 extracellular segment joined to EpCAM transmembrane and intracellular regions) (cynomolgus monkey); experiment: FACS, CHO K1-cyno DLL3 cells, 4 nM antibody
[14] = target: monkey DLL3 on CHO K1-cyno DLL3 cells (cynomolgus monkey DLL3 extracellular segment joined to EpCAM transmembrane and intracellular regions) (cynomolgus monkey); experiment: FACS, CHO K1-cyno DLL3 cells, 20 nM antibody
[15] = target: monkey DLL3 on CHO K1-cyno DLL3 cells (cynomolgus monkey DLL3 extracellular segment joined to EpCAM transmembrane and intracellular regions) (cynomolgus monkey); experiment: FACS, CHO K1-cyno DLL3 cells, 0.00128 nM antibody
[16] = target: monkey DLL3 on CHO K1-cyno DLL3 cells (cynomolgus monkey DLL3 extracellular segment joined to EpCAM transmembrane and intracellular regions) (cynomolgus monkey); experiment: FACS, CHO K1-cyno DLL3 cells, 0.16 nM antibody
[17] = target: DLL3 endogenously expressed on NCI-H82 cells (UniProt Q9NYJ7); experiment: FACS on NCI-H82 cells; antibody 20 nM
[18] = target: human DLL4 protein (human) (UniProt Q9NR61); experiment: ELISA, maximum over 0.1-100 nM
[19] = target: human DLL1 protein (human) (UniProt O00548); experiment: ELISA, maximum over 0.1-100 nM
[20] = target: human DLL3 protein expressed on CHO-K1 recombinant cells (human DLL3 extracellular segment fused to EpCAM transmembrane and intracellular regions) (human) (UniProt Q9NYJ7); experiment: FACS, CHO-K1 hDLL3 cells, 100 nM antibody
[21] = target: human DLL3 protein expressed on CHO-K1 recombinant cells (human DLL3 extracellular segment fused to EpCAM transmembrane and intracellular regions) (human) (UniProt Q9NYJ7); experiment: FACS, CHO-K1 hDLL3 cells, 4 nM antibody
[22] = target: human DLL3 protein expressed on CHO-K1 recombinant cells (human DLL3 extracellular segment fused to EpCAM transmembrane and intracellular regions) (human) (UniProt Q9NYJ7); experiment: FACS, CHO-K1 hDLL3 cells, 20 nM antibody
[23] = target: human DLL3 protein expressed on CHO-K1 recombinant cells (human DLL3 extracellular segment fused to EpCAM transmembrane and intracellular regions) (human) (UniProt Q9NYJ7); experiment: FACS, CHO-K1 hDLL3 cells, 0.0064 nM antibody
[24] = target: DLL3 endogenously expressed on NCI-H82 cells (UniProt Q9NYJ7); experiment: FACS on NCI-H82 cells; antibody 4 nM
[25] = target: human DLL3 protein expressed on CHO-K1 recombinant cells (human DLL3 extracellular segment fused to EpCAM transmembrane and intracellular regions) (human) (UniProt Q9NYJ7); experiment: FACS, CHO-K1 hDLL3 cells, 0.16 nM antibody
[26] = target: DLL3 endogenously expressed on NCI-H82 cells (UniProt Q9NYJ7); experiment: FACS on NCI-H82 cells; antibody 0.032 nM
[27] = target: DLL3 endogenously expressed on NCI-H82 cells (UniProt Q9NYJ7); experiment: FACS on NCI-H82 cells; antibody 0.8 nM
[28] = target: human DLL3 protein expressed on CHO-K1 recombinant cells (human DLL3 extracellular segment fused to EpCAM transmembrane and intracellular regions) (human) (UniProt Q9NYJ7); experiment: FACS, CHO-K1 hDLL3 cells, 0.8 nM antibody
[29] = target: DLL3 endogenously expressed on NCI-H82 cells (UniProt Q9NYJ7); experiment: FACS on NCI-H82 cells; antibody 0.00128 nM
[30] = target: DLL3 endogenously expressed on NCI-H82 cells (UniProt Q9NYJ7); experiment: FACS on NCI-H82 cells; antibody 0.16 nM
[31] = target: human DLL4 protein (Acro, Cat. No. DL4-H5227) (human) (UniProt Q9NR61); experiment: ELISA, coated hDLL4; maximum over 0.1, 1, 10, 100 nM antibody
[32] = target: human delta-like ligand 3 (DLL3) on SHP77 cells (human) (UniProt Q9NYJ7); experiment: FACS on SHP77 cells
[33] = target: DLL3 endogenously expressed on NCI-H82 cells (UniProt Q9NYJ7); experiment: FACS on NCI-H82 cells; antibody 100 nM
[34] = target: human DLL3 protein expressed on CHO-K1 recombinant cells (human DLL3 extracellular segment fused to EpCAM transmembrane and intracellular regions) (human) (UniProt Q9NYJ7); experiment: FACS, CHO-K1 hDLL3 cells, 0.00128 nM antibody
[35] = target: human DLL1 protein (Acro, Cat. No. DL1-H52H8) (human) (UniProt O00548); experiment: ELISA, coated hDLL1; maximum over 0.1, 1, 10, 100 nM antibody
[36] = target: human DLL3 protein expressed on CHO-K1 recombinant cells (human DLL3 extracellular segment fused to EpCAM transmembrane and intracellular regions) (human) (UniProt Q9NYJ7); experiment: FACS, CHO-K1 hDLL3 cells, 0.032 nM antibody
[37] = target: DLL3 endogenously expressed on NCI-H82 cells (UniProt Q9NYJ7); experiment: FACS on NCI-H82 cells; antibody 0.0064 nM

Sequence of human DLL3 protein expressed on CHO-K1 recombinant cells (human DLL3 extracellular segment fused to EpCAM transmembrane and intracellular regions) (human) (Q9NYJ7 other isoform, or with tags, fused parts or gaps limits assumed): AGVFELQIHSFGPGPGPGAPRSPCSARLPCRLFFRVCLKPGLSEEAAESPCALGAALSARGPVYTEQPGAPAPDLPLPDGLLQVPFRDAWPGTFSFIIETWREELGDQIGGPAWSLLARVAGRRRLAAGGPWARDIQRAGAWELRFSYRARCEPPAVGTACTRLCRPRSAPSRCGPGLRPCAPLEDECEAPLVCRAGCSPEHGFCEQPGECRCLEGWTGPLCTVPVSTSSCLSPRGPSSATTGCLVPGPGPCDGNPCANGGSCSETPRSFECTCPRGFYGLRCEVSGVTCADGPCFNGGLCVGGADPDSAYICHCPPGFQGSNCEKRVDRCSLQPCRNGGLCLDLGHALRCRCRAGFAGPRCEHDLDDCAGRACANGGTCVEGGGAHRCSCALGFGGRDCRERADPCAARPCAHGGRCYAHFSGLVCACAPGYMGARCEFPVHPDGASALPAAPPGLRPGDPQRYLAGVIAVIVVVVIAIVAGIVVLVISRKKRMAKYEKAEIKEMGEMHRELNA
Sequence of monkey DLL3 on CHO K1-cyno DLL3 cells (cynomolgus monkey DLL3 extracellular segment joined to EpCAM transmembrane and intracellular regions) (cynomolgus monkey) (chain, as listed by the source limits assumed): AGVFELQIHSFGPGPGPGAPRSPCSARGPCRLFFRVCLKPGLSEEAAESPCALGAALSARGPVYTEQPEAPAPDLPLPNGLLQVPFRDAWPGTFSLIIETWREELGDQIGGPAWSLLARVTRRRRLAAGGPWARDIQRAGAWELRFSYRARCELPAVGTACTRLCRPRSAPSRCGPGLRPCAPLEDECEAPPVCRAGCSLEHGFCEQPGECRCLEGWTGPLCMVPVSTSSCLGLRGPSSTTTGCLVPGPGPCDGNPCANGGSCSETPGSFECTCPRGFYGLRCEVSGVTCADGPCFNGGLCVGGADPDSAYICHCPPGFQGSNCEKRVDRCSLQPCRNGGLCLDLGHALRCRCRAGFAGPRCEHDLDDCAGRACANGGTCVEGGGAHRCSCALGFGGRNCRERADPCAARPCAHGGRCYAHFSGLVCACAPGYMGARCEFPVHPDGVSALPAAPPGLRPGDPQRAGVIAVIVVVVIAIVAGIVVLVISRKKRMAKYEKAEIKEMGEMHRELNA
Sequence of DLL3 endogenously expressed on NCI-H82 cells (Q9NYJ7 27-618): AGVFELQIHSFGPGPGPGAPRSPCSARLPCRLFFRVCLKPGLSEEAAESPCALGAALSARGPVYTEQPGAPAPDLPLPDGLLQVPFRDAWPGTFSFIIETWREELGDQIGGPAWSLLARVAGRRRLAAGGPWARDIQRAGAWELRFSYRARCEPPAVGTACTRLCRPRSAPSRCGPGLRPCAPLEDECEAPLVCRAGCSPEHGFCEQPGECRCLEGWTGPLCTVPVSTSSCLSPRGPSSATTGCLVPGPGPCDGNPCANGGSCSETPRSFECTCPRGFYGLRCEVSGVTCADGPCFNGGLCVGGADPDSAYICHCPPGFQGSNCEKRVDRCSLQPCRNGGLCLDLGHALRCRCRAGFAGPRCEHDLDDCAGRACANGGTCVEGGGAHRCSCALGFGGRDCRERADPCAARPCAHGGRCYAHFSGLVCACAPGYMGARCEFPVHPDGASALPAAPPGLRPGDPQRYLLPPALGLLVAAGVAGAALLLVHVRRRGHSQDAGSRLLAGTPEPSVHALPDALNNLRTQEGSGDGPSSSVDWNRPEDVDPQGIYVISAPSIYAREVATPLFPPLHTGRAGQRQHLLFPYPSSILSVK
Sequence of human DLL3 endogenously expressed on SHP77 and NCI-H82 cells (human) (Q9NYJ7 27-618): as above
Sequence of human delta-like ligand 3 (DLL3) on SHP77 cells (human) (Q9NYJ7 27-618, stated change not applied): as the sequence (Q9NYJ7 27-618) above
Sequence of human DLL4 protein (human) (Q9NR61 27-524 limits assumed): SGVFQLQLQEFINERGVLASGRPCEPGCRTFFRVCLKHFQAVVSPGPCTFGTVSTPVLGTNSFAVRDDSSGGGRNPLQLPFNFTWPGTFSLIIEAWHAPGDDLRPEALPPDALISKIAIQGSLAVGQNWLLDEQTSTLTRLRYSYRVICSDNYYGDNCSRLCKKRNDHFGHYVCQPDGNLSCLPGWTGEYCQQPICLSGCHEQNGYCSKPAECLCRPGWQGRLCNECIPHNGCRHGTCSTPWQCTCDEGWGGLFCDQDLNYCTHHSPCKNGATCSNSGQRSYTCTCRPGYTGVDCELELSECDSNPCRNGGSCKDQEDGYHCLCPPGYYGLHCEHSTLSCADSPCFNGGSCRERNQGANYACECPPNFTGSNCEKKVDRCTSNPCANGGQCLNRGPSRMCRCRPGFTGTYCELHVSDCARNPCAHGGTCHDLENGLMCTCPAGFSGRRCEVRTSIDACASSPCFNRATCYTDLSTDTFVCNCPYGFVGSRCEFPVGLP
Sequence of human DLL1 protein (human) (O00548 18-540 limits assumed): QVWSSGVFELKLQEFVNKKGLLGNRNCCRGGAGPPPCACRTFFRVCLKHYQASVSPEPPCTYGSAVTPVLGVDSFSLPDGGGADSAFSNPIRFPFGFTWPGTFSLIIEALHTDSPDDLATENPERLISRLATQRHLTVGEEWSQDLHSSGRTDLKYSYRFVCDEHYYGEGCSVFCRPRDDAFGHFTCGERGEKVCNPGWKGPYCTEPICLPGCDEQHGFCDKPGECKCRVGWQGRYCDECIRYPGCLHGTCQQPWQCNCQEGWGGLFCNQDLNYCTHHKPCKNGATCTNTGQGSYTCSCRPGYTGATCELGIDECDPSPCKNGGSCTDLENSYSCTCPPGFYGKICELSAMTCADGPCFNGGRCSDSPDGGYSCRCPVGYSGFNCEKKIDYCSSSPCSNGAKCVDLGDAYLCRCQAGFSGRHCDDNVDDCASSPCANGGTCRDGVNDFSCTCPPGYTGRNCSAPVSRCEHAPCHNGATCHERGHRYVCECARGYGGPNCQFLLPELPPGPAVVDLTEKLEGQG
Sequence of human DLL4 protein (Acro, Cat. No. DL4-H5227) (human) (Q9NR61 27-524 limits assumed): as the sequence (Q9NR61 27-524 limits assumed) above
Sequence of human DLL1 protein (Acro, Cat. No. DL1-H52H8) (human) (O00548 18-540 limits assumed): as the sequence (O00548 18-540 limits assumed) above

B1: mab014 scFv-hFc (Fc fusion, not shown: small tags and cut ends; a dimerising Fc or GST)
scFv (part 1 of 2): DIQMTQSSSSFSVSLGDRVTITCKASEDIYNRLAWYQQKPGNTPRLLISGATSLETGVPSRFSGSGSGKDFTLSITSLQTEDVATYYCQQYWSLPWTFGGGTKLEIK
scFv (part 2 of 2): EVQLHQSGPELVKPGTSVKISCKASGYTFTDYYMNWVKQSHGKSLEWIGDINPNHGDTGYNQKFTGKATLTVDKSSSTAYMELRSLTSEDSAVYYCARNFFYYGTTYGWYFDVWGTGTTVTVSS
With B1 the MFI [1] was 829 MFI, the MFI [2] was 681 MFI and the MFI [3] was 104 MFI. It also gave an MFI [4] of 137 MFI, an MFI [5] of 237 MFI and an MFI [6] of 461 MFI. For the same binder, the MFI [7] was 96 MFI and the MFI [8] was 1200 MFI.

B2: mab003 scFv-hFc (Fc fusion, part only; not given: VL-VH linker and human IgG1 Fc, not shown: another chain or arm of the molecule; a dimerising Fc or GST; small tags and cut ends)
scFv (part 1 of 2): DVQITQSPSYLAASPGETITINCRASKSISKYLAWYQEKPGKTNKLLIYSGSTLHSGIPSRFSGSGSGTDFTLTISSLEPEDFAIYYCQQHNEYPLTFGGGTKLELK
scFv (part 2 of 2): QVQLQQSGTELMKPGASVKLSCKATGYTFTGNWIEWVKQRPGHGLEWIGEILPGTGSTQYNEKFKGKATFTADPSSNTAYMQLSSLTTEDSAIYYCARWGSTVVAYDYWGQGTTLTVSS
Work on B2 yielded an MFI [1] of 1280 MFI, an MFI [2] of 789 MFI and an MFI [3] of 197 MFI. For the same binder, the MFI [4] was 351 MFI, the MFI [9] was 566 MFI and the MFI [10] was 243 MFI. For the same binder, the MFI [11] was 5570 MFI, the MFI [12] was 10600 MFI and the MFI [5] was 566 MFI. The MFI [13] was 7470 MFI, the MFI [6] was 732 MFI and the MFI [7] was 182 MFI. For the same binder, the MFI [14] was 8420 MFI, the MFI [8] was 976 MFI and the MFI [15] was 163 MFI. The MFI [16] was 1820 MFI.

B3: mab011 scFv-hFc (Fc fusion, not shown: small tags and cut ends; a dimerising Fc or GST)
scFv (part 1 of 2): DIVLTQSPATLSVTPGDSVSLSCRASQSISNNLHWYQQKSHESPRLLIKYASQSISGIPSRFSGSGSGTDFTLSINSVETEDFGMYFCQQSNSWPWTFGGGTKLEIK
scFv (part 2 of 2): EVQLQQSGPELVKPGASVKISCKASGYTFTDYYMNWVKQSHGKSLEWIGDISPNYGGTNYNQKFKGKATLTVDKSSSTACMELRSLTSEDSAVYYCTRSFYYYGTGYDWYFDVWGTGTTVTVSS
Work on B3 yielded an MFI [1] of 608 MFI, an MFI [2] of 508 MFI and an MFI [3] of 103 MFI. For the same binder, the MFI [4] was 146 MFI, the MFI [5] was 239 MFI and the MFI [6] was 417 MFI. It also gave an MFI [7] of 90 MFI and an MFI [8] of 822 MFI.

B4: BI3 (antibody, human IgG1, kappa, V domains shown)
VH: QVQLVQSGAEVKKPGASVKVSCKASGYTFTSYYVHWVRQAPGQGLEWMVIINPGGGTTSYAQKFLGRVTMTRDTSTNTVYMELKSLRSEDTAVYYCARGEAVTGNYFYYGMDVWGQGTTVTVSS
VL: DIQMTQSPSAMSASVGDRVTITCRASQGISNYLVWFQQKPGKAPKRLIYAVSSLYSGVPSRFSGSGSGTEFTLTISSLQPEDFATYYCLQHDSYPYTFGQGTKLEIKR
In the case of B4, the MFI [17] is reported as 882, the Emax of OD450 nm binding value [18] is reported as 0.05 OD450 and 0.04 OD450 and the Emax of OD450 nm binding value [19] is reported as 0.05 OD450 and 0.07 OD450. It also gave an MFI [20] of 13200 MFI, an MFI [21] of 12600 MFI and an MFI [22] of 13400 MFI. For the same binder, the MFI [23] was 452 MFI, the MFI [24] was 795 and the MFI [25] was 2660 MFI. The MFI [26] was 155, the MFI [27] was 518 and the MFI [28] was 7770 MFI. The MFI [29] was 112, the MFI [30] was 256 and the Emax of OD450 nm binding value [31] was 0.06 OD450 nm. The MFI at 0.00128 nM [32] was 101 MFI, the MFI at 0.0064 nM [32] was 105 MFI and the MFI at 0.032 nM [32] was 110 MFI. For the same binder, the MFI at 0.16 nM [32] was 148 MFI, the MFI at 0.8 nM [32] was 252 MFI and the MFI at 4 nM [32] was 498 MFI. It also gave an MFI at 20 nM [32] of 807 MFI, an MFI at 100 nM [32] of 967 MFI and an MFI [33] of 1010. For the same binder, the MFI [34] was 310 MFI, the Emax of OD450 nm binding value [35] was 0.14 OD450 nm and the MFI [36] was 924 MFI. The MFI [37] was 121.
